Substitutions are numbered along the chain they refer to.

The source of these data is article PMC6083498, “F-CphI represents a new homing endonuclease family using the Endo VII catalytic motif”.

For series [1], the target named is T1, F-CphI N118D (cyanophage S-PM2, UniProt Q7Y4H4 1-142, N118D).
T1 sequence: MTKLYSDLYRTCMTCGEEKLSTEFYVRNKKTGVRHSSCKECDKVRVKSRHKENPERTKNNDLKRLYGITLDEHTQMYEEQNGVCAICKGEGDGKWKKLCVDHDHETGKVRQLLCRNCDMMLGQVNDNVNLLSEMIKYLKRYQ
Kind of series: EMSA; no Mg2+ added; EMSA: 10 mM Tris-HCl pH 8.0, 2% glycerol, 2 ug/ml poly-dIdC, 2 ug/ml BSA, 0.2 mM DTT, on ice 15 min, 2 nM labeled DNA; 8% native PAGE in 1X TBE. The note with it: protein: recombinant; tags: C-terminal Myc-His; label: 5'-32P on top strand; blunt.

Series [2] has as its target T2, F-CphI C84S (cyanophage S-PM2, UniProt Q7Y4H4 1-142, C84S).
T2 sequence: T1 sequence with C84S, D118N
The description is as above. The note with it: protein: recombinant; tags: C-terminal Myc-His; label: 5'-32P on top strand; blunt.

B1: SBM4-60Top duplex (dsDNA)
DNA 1: TGGTCTGGGTATGGAAGTGATGCACGAGCGCAACGCTCACAACTTCCCTCTCGACCTTGC
DNA 2: GCAAGGTCGAGAGGGAAGTTGTGAGCGTTGCGCTCGTGCATCACTTCCATACCCAGACCA
As to B1, the binding result in series [1] and in series [2] was “no binding” each time.
